Assay results from patent US12269859B2, “Synthetic immune receptors and methods of use thereof” (Angeles Therapeutics, Inc., priority 2016, dated 2025).

B1: 031417-N06 (protein)
chain: MALPVTALLLPLALLLHAARPQIVLSQSPAILSASPGEKVTMTCRASSSVSYMHWYQQKPGSSPKPWIYATSNLASGVPARFSGSGSGTSYSFTISRVEAEDAATYYCQQWTFNPPTFGGGTRLEIKRTVAALEIQNPDPAVYQLRDSKSSDKSVCLFTDFDSQTNVSQSKDSDVYITDKCVLDMRSMDFKSNSAVAWSNKSDFACANAFNNSIIPEDTFFPSSDVPCDVKLVEKSFETDTNLNFQNLSVIGFRILLLKVAGFNLLMTLRLWSSRAKRSGSGVKQTLNFDLLKLAGDVESNPGPTSMDWIWRILFLVGAATGAHSFEQAYLQQSGAELVRPGASVKMSCKASGYTFTSYNMHWVKQTPRQGLEWIGGIYPGNGDTSYNQKFKGKATLTVGKSSSTAYMQLSSLTSEDSAVYFCARYDYNYAMDYWGQGTSVTVSSASTREDLKNVFPPEVAVFEPSKAEIAHTQKATLVCLATGFYPDHVELSWWVNGKEVHSGVCTDPQPLKEQPALNDSRYCLSSRLRVSATFWQNPRNHFRCQVQFYGLSENDEWTQDRAKPVTQIVSAEAWGRADCGITSASYHQGVLSATILYEILLGKATLYAVLVSALVLMAMVKRKDSRGRAKRSGSGATNFSLLKQAGDVEENPGPSRGHMTEYKPTVRLATRDDVPRAVRTLAAAFADYPATRHTVDPDRHIERVTELQELFLTRVGLDIGKVWVADDGAAVAVWTTPESVEAGAVFAEIGPRMAELSGSRLAAQQQMEGLLAPHRPKEPAWFLATVGVSPDHQGKGLGSAVVLPGVEAAERAGVPAFLETSAPRNLPFYERLGFTVTADVEVPEGPRTWCMTRKPGA
B2: 012617-S04 (protein)
chain: MALPVTALLLPLALLLHAARPLEGKPIPNPLLGLDSTGSGEDLKNVFPPEVAVFEPSKAEIAHTQKATLVCLATGFYPDHVELSWWVNGKEVHSGVCTDPQPLKEQPALNDSRYCLSSRLRVSATFWQNPRNHFRCQVQFYGLSENDEWTQDRAKPVTQIVSAEAWGRADCGITSASYHQGVLSATILYEILLGKATLYAVLVSALVLMAMVKRKDSRGRAKRSGSGATNFSLLKQAGDVEENPGPTSMALPVTALLLPLALLLHAARPDIQMTQSPSSLSASVGDRVTITCRASSSVSYMHWYQQKPGKAPKPLIYAPSNLASGVPSRFSGSGSGTDFTLTISSLQPEDFATYYCQQWSFNPPTFGQGTKVEIKRGGGGSGGGGSGGGGSEVQLVESGGGLVQPGGSLRLSCAASGYTFTSYNMHWVRQAPGKGLEWVGAIYPGNGDTSYNQKFKGRFTISVDKSKNTLYLQMNSLRAEDTAVYYCARVVYYSNSYWYFDVWGQGTLVTVSSTREQKLISEEDGSGIQNPDPAVYQLRDSKSSDKSVCLFTDFDSQTNVSQSKDSDVYITDKCVLDMRSMDFKSNSAVAWSNKSDFACANAFNNSIIPEDTFFPSSDVPCDVKLVEKSFETDTNLNFQNLSVIGFRILLLKVAGFNLLMTLRLWSSRAKRSGSGVKQTLNFDLLKLAGDVESNPGPSRGHMTEYKPTVRLATRDDVPRAVRTLAAAFADYPATRHTVDPDRHIERVTELQELFLTRVGLDIGKVWVADDGAAVAVWTTPESVEAGAVFAEIGPRMAELSGSRLAAQQQMEGLLAPHRPKEPAWFLATVGVSPDHQGKGLGSAVVLPGVEAAERAGVPAFLETSAPRNLPFYERLGFTVTADVEVPEGPRTWCMTRKPGA
B3: 030917-Z01 (protein)
chain: MALPVTALLLPLALLLHAARPEIVLTQSPGTLSLSPGERATLSCRASSSVPYIHWYQQKPGQAPRLLIYATSALASGIPDRFSGSGSGTDFTLTISRLEPEDFAVYYCQQWLSNPPTFGQGTKLELKRLEDLKNVFPPEVAVFEPSKAEIAHTQKATLVCLATGFYPDHVELSWWVNGKEVHSGVCTDPQPLKEQPALNDSRYCLSSRLRVSATFWQNPRNHFRCQVQFYGLSENDEWTQDRAKPVTQIVSAEAWGRADCGITSASYHQGVLSATILYEILLGKATLYAVLVSALVLMAMVKRKDSRGRAKRSGSGATNFSLLKQAGDVEENPGPTSMDWIWRILFLVGAATGAHSFEEVQLVQSGAEVKKPGESLKLSCKGSGRTFTSYNMHWVRQMPGKGLEWMGAIYPLTGDTSYNQKSKLQVTISADKSISTAYLQWSSLKASDTAMYYCARSTYVGGDWQFDVWGKGTTVTVSSTRIQNPDPAVYQLRDSKSSDKSVCLFTDFDSQTNVSQSKDSDVYITDKCVLDMRSMDFKSNSAVAWSNKSDFACANAFNNSIIPEDTFFPSSDVPCDVKLVEKSFETDTNLNFQNLSVIGFRILLLKVAGFNLLMTLRLWSSRAKRSGSGVKQTLNFDLLKLAGDVESNPGPSRGHMTEYKPTVRLATRDDVPRAVRTLAAAFADYPATRHTVDPDRHIERVTELQELFLTRVGLDIGKVWVADDGAAVAVWTTPESVEAGAVFAEIGPRMAELSGSRLAAQQQMEGLLAPHRPKEPAWFLATVGVSPDHQGKGLGSAVVLPGVEAAERAGVPAFLETSAPRNLPFYERLGFTVTADVEVPEGPRTWCMTRKPGA
B4: 102715-E07 (protein)
chain: MALPVTALLLPLALLLHAARPDIQMTQSPSSLSASVGDRVTITCRASQTIWSYLNWYQQRPGKAPNLLIYAASSLQSGVPSRFSGRGSGTDFTLTISSLQAEDFATYYCQQSYSIPQIFGQGTKLEIKLEGKPIPNPLLGLDSTGSGEDLKNVFPPEVAVFEPSKAEIAHTQKATLVCLATGFYPDHVELSWWVNGKEVHSGVCTDPQPLKEQPALNDSRYCLSSRLRVSATFWQNPRNHFRCQVQFYGLSENDEWTQDRAKPVTQIVSAEAWGRADCGITSASYHQGVLSATILYEILLGKATLYAVLVSALVLMAMVKRKDSRGRAKRSGSGATNFSLLKQAGDVEENPGPTSMDWIWRILFLVGAATGAHSFEQVQLQQSGPGLVKPSQTLSLTCAISGDSVSSNSAAWNWIRQSPSRGLEWLGRTYYRSKWYNDYAVSVKSRITINPDTSKNQFSLQLNSVTPEDTAVYYCAREVTGDLEDAFDIWGQGTMVTVSSTREQKLISEEDGSGIQNPDPAVYQLRDSKSSDKSVCLFTDFDSQTNVSQSKDSDVYITDKCVLDMRSMDFKSNSAVAWSNKSDFACANAFNNSIIPEDTFFPSSDVPCDVKLVEKSFETDTNLNFQNLSVIGFRILLLKVAGFNLLMTLRLWSSRAKRSGSGVKQTLNFDLLKLAGDVESNPGPSRGHMTEYKPTVRLATRDDVPRAVRTLAAAFADYPATRHTVDPDRHIERVTELQELFLTRVGLDIGKVWVADDGAAVAVWTTPESVEAGAVFAEIGPRMAELSGSRLAAQQQMEGLLAPHRPKEPAWFLATVGVSPDHQGKGLGSAVVLPGVEAAERAGVPAFLETSAPRNLPFYERLGFTVTADVEVPEGPRTWCMTRKPGA
modifications: Synthetic Immune Receptor (SIR)
B5: 041417-B06 (protein)
chain: MALPVTALLLPLALLLHAARPEVQLQQSGPGLVKPSQTLSLTCAISGDSVLSNSDTWNWIRQSPSRGLEWLGRTYHRSTWYDDYASSVRGRVSINVDTSKNQYSLQLNAVTPEDTGVYYCARDRLQDGNSWSDAFDVWGQGTMVTVSSLEIQNPDPAVYQLRDSKSSDKSVCLFTDFDSQTNVSQSKDSDVYITDKCVLDMRSMDFKSNSAVAWSNKSDFACANAFNNSIIPEDTFFPSSDVPCDVKLVEKSFETDTNLNFQNLSVIGFRILLLKVAGFNLLMTLRLWSSRAKRSGSGVKQTLNFDLLKLAGDVESNPGPTSMDWIWRILFLVGAATGAHSFEQSALTQPASVSGSPGQSITISCTGTSSDVGGYNYVSWYQQHPGKAPKLMIYDVSNRPSGVSNRFSGSKSGNTASLTISGLQAEDEADYYCSSYTSSSTLVYVFGTGTKVTVLTREDLKNVFPPEVAVFEPSKAEIAHTQKATLVCLATGFYPDHVELSWWVNGKEVHSGVCTDPQPLKEQPALNDSRYCLSSRLRVSATFWQNPRNHFRCQVQFYGLSENDEWTQDRAKPVTQIVSAEAWGRADCGITSASYHQGVLSATILYEILLGKATLYAVLVSALVLMAMVKRKDSRGRAKRSGSGATNFSLLKQAGDVEENPGPSRGHMTEYKPTVRLATRDDVPRAVRTLAAAFADYPATRHTVDPDRHIERVTELQELFLTRVGLDIGKVWVADDGAAVAVWTTPESVEAGAVFAEIGPRMAELSGSRLAAQQQMEGLLAPHRPKEPAWFLATVGVSPDHQGKGLGSAVVLPGVEAAERAGVPAFLETSAPRNLPFYERLGFTVTADVEVPEGPRTWCMTRKPGA
B6: 031517-W03 (protein)
chain: MALPVTALLLPLALLLHAARPLEGKPIPNPLLGLDSTGSGEDLKNVFPPEVAVFEPSKAEIAHTQKATLVCLATGFYPDHVELSWWVNGKEVHSGVCTDPQPLKEQPALNDSRYCLSSRLRVSATFWQNPRNHFRCQVQFYGLSENDEWTQDRAKPVTQIVSAEAWGRADCGITSASYHQGVLSATILYEILLGKATLYAVLVSALVLMAMVKRKDSRGRAKRSGSGATNFSLLKQAGDVEENPGPTSMALPVTALLLPLALLLHAARPEIVLTQSPSSLSASVGDRVTITCRASSSLSFMHWYQQKPGKAPKPWIYATSNLASGVPSRFSGSGSGTDYTLTISSLQPEDFATYFCHQWSSNPLTFGGGTKVEIKGGGGSGGGGSGGGGSQVQLVQSGAEVKKPGASVKVSCKASGYTFTSYNMHWVRQAPGQRLEWIGAIYPGNGDTSYNQKFKGRVTVTRDTSANTAYMELSSLKSEDTAVYYCARSHYGSNYVDYFDYWGQGTLVTVSSTREQKLISEEDGSGIQNPDPAVYQLRDSKSSDKSVCLFTDFDSQTNVSQSKDSDVYITDKCVLDMRSMDFKSNSAVAWSNKSDFACANAFNNSIIPEDTFFPSSDVPCDVKLVEKSFETDTNLNFQNLSVIGFRILLLKVAGFNLLMTLRLWSSRAKRSGSGVKQTLNFDLLKLAGDVESNPGPSRGHMTEYKPTVRLATRDDVPRAVRTLAAAFADYPATRHTVDPDRHIERVTELQELFLTRVGLDIGKVWVADDGAAVAVWTTPESVEAGAVFAEIGPRMAELSGSRLAAQQQMEGLLAPHRPKEPAWFLATVGVSPDHQGKGLGSAVVLPGVEAAERAGVPAFLETSAPRNLPFYERLGFTVTADVEVPEGPRTWCMTRKPGA

What follows are molecules tested on target antigen-expressing cell line (assay: Jurkat NFAT-GFP assay, coculture with target cell lines expressing the respective target antigen (summary Table 10A)). Details: SIR-expressing Jurkat-NFAT-GFP cells cocultured with NALM6; relative % GFP positive cells.
Type: cell-based, human
Parameters: key: The signs +/−, +, 2+ etc. after the name of the cell lines indicate the relative degree of positivity on the Jurkat-NFAT-GFP assay as measured by the % GFP positive cells; +: relative degree of positivity on the Jurkat-NFAT-GFP assay as measured by the % GFP positive cells; 2+: relative degree of positivity on the Jurkat-NFAT-GFP assay as measured by the % GFP positive cells
Procedure, shortened: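 Jurkat cells carrying an NFAT-site IL-2 promoter driving GFP were lentivirally transduced with SIRs, puromycin-selected, then cocultured with antigen-expressing target cells at E:T about 1:2 for about 4–18 hours. GFP induction was read by flow cytometry as % GFP-positive cells versus parental Jurkat-NFAT-GFP.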

Molecule	NFAT-GFP ASSAY Positive Cell lines: NALM6
B1	(+)
B2	(+/−)
B3	(+/−)

Same assay, conditions: SIR-expressing Jurkat-NFAT-GFP cells cocultured with RAJI; relative % GFP positive cells

Molecule	NFAT-GFP ASSAY Positive Cell lines: RAJI
B4	RAJI (+)
B5	RAJI (+/−)
B3	RAJI (2+), NALM6
B6	RAJI (+/−)
